Assay results taken from doi:10.1101/291427.

Biological target: T1, CSEP0064/BEC1054 (Blumeria graminis) (UniProt N1JJ94)
T1 sequence: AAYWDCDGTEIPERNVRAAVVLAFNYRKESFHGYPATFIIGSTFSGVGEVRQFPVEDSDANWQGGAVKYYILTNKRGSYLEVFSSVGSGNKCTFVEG
Experiment: NMR

Substance: SRL DNA oligonucleotide
- Kd: > 10 µM
